Test results as given in article PMC3777995, “The Inhibitory Helix Controls the Intramolecular Conformational Switching of the C-Terminus of STIM1” (PLoS ONE, 2013).
Values joined by “and” are separate entries in the source; they are usually repeats but may differ in a detail not shown here. Equal values may be shown once.

B1: wild-type CC1-IH (human STIM1 amino acids 237-340) (domain or fragment, UniProt Q13586 237-340, looked up)
chain: SKEHMKKMMKDLEGLHRAEQSLHDLQERLHKAQEEHRTVEVEKVHLEKKLRDEINLAKQEAQRLKELREGTENERSRQKYAEEELEQVREALRKAEKELESHSS
notes: Predominantly a dimer and partially a tetramer by AUC; His tag removed with PreScission protease; source: E. coli BL21(DE3) Codon-Plus, purified (Ni-NTA, Q-Sepharose, Superdex-200)
B2: IH-only fragment of STIM1 (peptide, UniProt Q13586 310-340, looked up)
chain: ERSRQKYAEEELEQVREALRKAEKELESHSS
notes: limits 310-340 are printed for the MBP-tagged IH from which this fragment was cut; Theoretical mass 3.7 kDa; also called IH-only protein; source: E. coli, obtained by PreScission digestion of purified MBP-IH, purified (Superdex 200)
B3: MBP-IH fusion protein (MBP-tagged IH, STIM1 residues 310-340) (domain or fragment, human, UniProt Q13586 310-340, looked up)
chain: ERSRQKYAEEELEQVREALRKAEKELESHSS
notes: made by loop-out of the CC1 fragment from MBP-CC1-IH; Theoretical mass 49 kDa; a PreScission-cleavable segment stands between MBP and IH; also called IH-MBP fusion protein; source: E. coli, purified (MBPTrap, Q-Sepharose, Superdex-200)

Columns and labels:
[1] = biological target: the molecule itself; assay: AUC; sedimentation velocity, 42,000 rpm, 4°C, interference detection; approximately 6 mg/ml CC1-IH, 1.57 mg/ml CC1, 1.2 mg/ml MBP-IH; 20 mM Tris-HCl pH 8.0, 200 mM NaCl, 1 mM EDTA; self-associating multimerization model
[2] = biological target: the molecule itself; assay: SEC; HiLoad 26/60 Superdex 200 and Superdex 200 columns calibrated with protein standards; 20 mM Tris-HCl pH 8.0, 200 mM NaCl, 1 mM EDTA

Protein	stoichiometry N [1]	stoichiometry N [2]
B1	2 and 4	
B2		2
B3		2
